# In patent publication US20170369572A1:
# B1: B6H12, mu anti-hu CD47 (antibody, from another filing, V domains shown)
# VH: EVQLVESGGDLVKPGGSLKLSCAASGFTFSGYGMSWVRQTPDKRLEWVATITSGGTYTYYPDSVKGRFTISRDNAKNTLYLQIDSLKSEDTAIYFCARSLAGNAMDYWGQGTSVTVSS
# VL: DIVMTQSPATLSVTPGDRVSLSCRASQTISDYLHWYQQKSHESPRLLIKFASQSISGIPSRFSGSGSGSDFTLSINSVEPEDVGVYYCQNGHGFPRTFGGGTKLEIK
# Target: human CD47 on CCRF-CEM cells (human) (UniProt Q08722)
# Experiment: flow cytometry on CCRF-CEM cells, MFI against concentration, one site specific binding with Hill slope
binder,measurement,value
B1,Kd,16 nM
